Test results: the supplement of paper PMC9170038

Tested on: MS2 coat protein
Test: apparent KD of MS2 coat protein; designed switch direction (-1 OFF switch, 1 ON switch): 1; higher = weaker reporter binding
Summary of the method: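 Designed RNA switches sharing common flanks were transcribed on Illumina chips by stalled E. coli RNA polymerase. They were titrated with SNAP-549-labelled MS2 coat protein, from 0.7 or 1.5 nM doubling to 3 µM, in Tris-HCl pH 7.5 buffer with KCl, MgCl2, BSA, DTT, tRNA and Tween-20. Titrations ran without input, with 200 uM small-molecule ligand, or with an oligonucleotide input. The apparent KD of each design is the median over its clusters, after curve-fitting of normalised cluster fluorescence.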

[1] = Eterna round: R95, input ligand: FMN 200 uM
[2] = Eterna round: R95, input ligand: microRNA oligo, concentration not stated
[3] = Eterna round: R95, input ligand: none
[4] = input ligand: microRNA oligo, concentration not stated

Row | Sequence | apparent KD of MS2 coat protein [1] | apparent KD of MS2 coat protein [2] | apparent KD of MS2 coat protein [3] | apparent KD of MS2 coat protein (input ligand: FMN 200 uM) | apparent KD of MS2 coat protein [4] | apparent KD of MS2 coat protein (input ligand: none)
1 | GGUCCAGCCUGAGCUGGACAAAAGCAUGUACAUGAGGAUCACCCAUGUUCAUGUACAAGCUUUUUGCUCGUCUUGCA [salish99_208a_r3_110x] (puzzle: Sensor for hsa-mir-208a) | 639 nM | 15.5 nM | 706 nM |  |  | 
2 | GUAGAUAUAACGGAGGAUAUUCAAUGAGAGACAUGAGGAUCACCCAUGUGAGAGUGAGAUGAUAGGAAGAAGGCUGAGAGAGAUG [Altered State 2-7 - Jieux - Same State 2] (puzzle: Same State 2) | 94.2 nM | 70.3 nM | 64.7 nM |  |  | 
3 | AGUGAACAUGAGGAUCACCCAUGUGAGAGAAGUGUAGGAUAUGUGAGGAGCAGAGGAGGAACAGAAGGACAUGGAG [JR_SS!_Sub073] (puzzle: Same State 1) | 29 nM | 36.8 nM | 48.5 nM |  |  | 
4 | GCCAACUCAUGAGGAUAUGGCACCUUAAUGGUGCCAGAAGGCAUGUCUAUUGACAUGAGGAUCACCCAUGUAUUAUUGUUGGCA [Fiskers NG1ss - 25] (Eterna round: R96, puzzle: Same State NG 1) |  |  |  | 100 nM | 241 nM | 821 nM
5 | GGAAUAUUUACAGGAUAUGAUUUGUAAAUUCGAUCAGAAGGGUAGAUGUCUUACACGAUUUGUUACAUGAGGAUCACCCAUGUU [SameState NG1 #10] (Eterna round: R96, puzzle: Same State NG 1) |  |  |  | 31 nM | 81.9 nM | 86.3 nM
6 | CCGAUAAUAGGACAGGAUAUGACUGUCGUCACAUGAGGAUCACCCAUGUCCCGGCAAUGCCACCGUUAGAAGGGUCCUAUCUCGA [Maeded] (puzzle: Same State 2) |  | 13.5 nM |  |  |  | 
7 | GCUAGUAUUAUUGCUAACAUGAGGAUCACCCAUGUAUGUUGGCAGGAUAUCGUUUGCAAAGCAAACGAGAAGGGCUAAACUAGC [Mat - Same State NG 3 - JL Mod - D13] (Eterna round: R96, puzzle: Same State NG 3) |  |  |  | 27.7 nM | 75.6 nM | 98.8 nM
8 | UUGAAGAAUUAAGGAUAUUGAUUACAUAUGUAUAACAUGAGGAUCACCCAUGUGGGUUGCGGUAUCGAGAAGGUAAAUUACUAG [Mat - same State NG 2 - JL mod - D75] (Eterna round: R96, puzzle: Same State NG 2) |  |  |  | 145 nM | 98.5 nM | 98.2 nM
9 | AGUCCAGCGAAAGCUGGACAAAAGCAUGUACAUGAGGAUCACCCAUGUUUAUGUACAAGCUUUUUGCUCGUUUUAAA [JL mod - D95 - 16] (puzzle: Sensor for hsa-mir-208a) | 365 nM | 13.1 nM | 433 nM |  |  | 
10 | UUGUUUUGUAAUUAACAUGAGGAUCACCCAUGUCUUGGCUCAGAGGAUAUACAUGUUUGUUUGUAGUAGAAGGCUGUUUGUUGU [JR_SSNG3_Sub095] (Eterna round: R96, puzzle: Same State NG 3) |  |  |  | 94.7 nM | 107 nM | 131 nM
11 | UUGAAGAAUUAAGGAUAUUGAAUACAUAUGUUUAACAUGAGGAUCACCCAUGUGGGUUGCGGUGUCGAGAAGGUAAAUUAAUAG [Mat - same State NG 2 - JL mod - D94] (Eterna round: R96, puzzle: Same State NG 2) |  |  |  | 221 nM | 191 nM | 291 nM
12 | CGGCGCUGUCGAGAGGAUAUGCGGUGAUGGACAUGAGGAUCACCCAUGUUAGCGAUAGCAUCACGGUAGAAGGCUCUACGGCCUG [Soteed Omei mod 22] (puzzle: Same State 2) |  | 52.3 nM |  |  |  | 
13 | AGGAAACAUGAGGAUCACCCAUGUAAAAAUAUGGGAGGAUAUGCGAAAAGAAACAAAGAAGCAGAAGGCCUAAGAA [75%, Ex5 sub 1, 7] (Eterna round: R96, puzzle: Same State 1) |  |  |  |  | 85.7 nM | 
14 | UAGUUACUAUCUCAGGAUAUCAUGUCAAAGACAUGAGGAUCACCCAUGUACCAGGAAACUGGUUAUGAGAAGGGAGAUAGUAACU [Mat - Same State 2 - Mod - D55] (puzzle: Same State 2) | 134 nM | 104 nM | 1070 nM |  |  | 
15 | GACAAUCUAUCUCAGGAUAUCAUGUCAAAGACAUGAGGAUCACCCAUGUACCAGGAAACUGGUUAUGAGAAGGGAGAUAGAUUGG [Mat - Same State 2 - Mod - D27] (puzzle: Same State 2) | 179 nM | 15.7 nM | 5660 nM |  |  | 
16 | GCGAAAUGAUGAAACAUGAGGAUCACCCAUGUAACGAGAGAUGAGGAUAUCGGAAAGGGAGGAACCGAGAAGGCAUGGUCACGC [AK SSNG3-V2-26.1] (Eterna round: R96, puzzle: Same State NG 3) |  |  |  | 34.5 nM | 37.1 nM | 48.2 nM

Row | Sequence | apparent KD of MS2 coat protein [1] | apparent KD of MS2 coat protein [2] | apparent KD of MS2 coat protein [3] | apparent KD of MS2 coat protein (input ligand: FMN 200 uM) | apparent KD of MS2 coat protein [4] | apparent KD of MS2 coat protein (input ligand: none)
17 | UGUUAUUUGACAGGAUAUUGAUUGUAAAGUUUUUACAUGAGGAUCACCCAUGUUGUUCAUUCGAACAAGAAGGGUCAAGUUUUU [JR_SSNG2_Sub019] (Eterna round: R96, puzzle: Same State NG 2) |  |  |  | 1070 nM | 48.2 nM | 172 nM
18 | CUGUAUCACGGAGGAUAUGGGCUGAGACCAGGGCAACCCUGGUCAACAUGAGGAUCACCCAUGUCCCAGAAGGCCGCGAUGCUA [Geisorqu] (Eterna round: R96, puzzle: Same State NG 2) |  |  |  | 23.8 nM | 82.9 nM | 137 nM
19 | AUUUCAGUCAGAGGAUAUUGUUUAUCUCUAUUGCAAGAAGGCUGAUCUUACUACCCACUUAUGAAACAUGAGGAUCACCCAUGU [JR_SSNG1_Sub017] (Eterna round: R96, puzzle: Same State NG 1) |  |  |  |  | 15.7 nM | 
20 | UGAAUAGUUACAGGAUAUGAGCCGAAAAUUGGGUCAGAAGGGUGGGUGUUUUGCGCUAUGUGCUACAUGAGGAUCACCCAUGUU [SameState NG1 #34] (Eterna round: R96, puzzle: Same State NG 1) |  |  |  | 888 nM | 268 nM | 338 nM
21 | AGAAGACAUGAGGAUCACCCAUGUACCUCAUAAGGAGAGAGCGAGGAUAUGUAGAGAGAGAGGGAACAGAAGGUGUGAGAGGAA [Default title] (Eterna round: R96, puzzle: Same State NG 3) |  |  |  | 218 nM | 99.4 nM | 161 nM
22 | UGGCUCAGACGAGGAUAUAUGUGAUCACAUGAGGAUCACCCAUGUCUCGAGCUUCGGCUCGAGACAUAGAAGGUGUCUGAGCCA [SSNG2/3-C2] (Eterna round: R96, puzzle: Same State NG 2) |  |  |  | 14.8 nM | 96.2 nM | 49.5 nM
23 | AAAAGACAUGAGGAUCACCCAUGUAUGAAAAGUACAGGAUAUCACGAGCUAAAGUGCGAGUGAGAAGGGUGAAAAU [Araceesge] (puzzle: Same State 1) | 60.9 nM | 41.9 nM | 37.1 nM |  |  | 
24 | AAUCGUUUGAUAGGAUAUCGCUAUACAUGAGGAUCACCCAUGUUUACCACACUGGUUUUUCGUACCGAGAAGGAUUCUGAUGAU [JL JR sub007 mod 9] (Eterna round: R96, puzzle: Same State NG 2) |  |  |  | 40.2 nM | 33.1 nM | 43.5 nM
25 | UUAAAGAAGUAAGGAUAUACAUGAGGAUCACUCGUAGAAGGUACUAAACAUGAGGAUCACCCAUGUACCGGUCCGUAGACUGGA [Mat - Same State NG 1 - JL mod - D2] (Eterna round: R96, puzzle: Same State NG 1) |  |  |  | 960 nM | 248 nM | 483 nM
26 | AUUUGUAAUGCAGGAUAUGAUUAACAUGAGGAUCACCCAUGUGGUGUUGUGAGUAAGGAGAGUGAUCAGAAGGGCAUUUUUUUU [JMF's solution 98] (Eterna round: R96, puzzle: Same State NG 2) |  |  |  | 800 nM | 295 nM | 526 nM
27 | UGAAUACAUGAGGAUCACCCAUGUCAACGUAGUCGAGGAUAUGGGCAGCCGUGAGGCGUACCAGAAGGCGAAGAGG [Mat - Same State 1 - Mod of JL - D4] (puzzle: Same State 1) | 40.4 nM | 88.8 nM | 132 nM |  |  | 
28 | GCGAAAGCGGUAGGAUAUCUAGGAUAUGGGAAAGACUAAGUCUGUAGGUCACCUAACCCAGAAGGAGAGAAGGACAGGGAAACC [pwkr ssNG2 2FMN + F9.34] (Eterna round: R96, puzzle: Same State NG 2) |  |  |  | 38.8 nM | 28.9 nM | 22.1 nM
29 | AGCCGAGACUGAGGAUAUUUUAAUCUACAUGAGGAUCACCCAUGUAACAACACGUGGUAUUGAUAGAAGAAGGCGGCUCGGCGC [Omei SS(NG)2 C] (Eterna round: R96, puzzle: Same State NG 2) |  |  |  | 24.3 nM | 50.4 nM | 64 nM
30 | GUUACAUGAGGAUCACCCAUGUAUGUGUGGGAGUAAGUGUCUUAGGAUAUCUAUGAUUUAAUUCAAGAGAAGGAAGAUUGUUGU [JMF's solution 85] (Eterna round: R96, puzzle: Same State NG 3) |  |  |  | 115 nM | 70.7 nM | 79.5 nM
31 | GAGAGAGGGCGAGGAUAUUCGGUGAUAAUGAUGGAAGAAGGCGCUGACAUGAGGAUCACCCAUGUGGGAAUAAUCCAGAGAGAG [Parity 15 - Jieux - Same State NG 1] (Eterna round: R96, puzzle: Same State NG 1) |  |  |  | 494 nM | 130 nM | 237 nM
